Laboratory results as given in US20080095824A1, “Delivery of drugs from sustained release devices implanted in myocardial tissue or in the pericardial space” (Durect Corporation, priority 2001, published 2008).
Like-named read-outs stand apart in the source and are kept apart here.

Experiments:
[1] = Time course of infusion into the pericardial space; format: in vivo, male Wistar rats; settings: for plasma concentration over time: intrapericardial infusion, 7-day period (bFGF: day 3 through day 7)
Protocol: Substances were administered to the pericardial space of male Wistar rats weighing 250-300 grams by infusion via catheter for 1 week using an Alzet™ osmotic minipump at a volume rate of about 1 μl/hour. Blood and pericardial fluid samples were taken at various time points and the concentration of administered substances was measured fluorimetrically (for fluorescently labeled compounds) or by HPLC (for steroids). Concentration of fluorescently labeled compounds is expressed as fluorescent units/ml fluid.

in vivo = settings: rat
Protocol: (§1) Minipumps, filled with solutions of the substances to be tested, were primed in saline at 37° C. at least 4 hours, prior to connection to the catheter. Before installing pumps, pericardial fluid and orbital sinus blood was sampled, to serve as blanks. 7 days after pump installment, rats were sacrificed by exsanguination under pentobarbitone and pericardial fluid and blood collected. To check for possible loss of substances during infusion, remaining pump contents were analyzed. […] Doses were chosen to achieve concentrations that were readily measurable but without pharmacological effects (risk of bleeding in the case of heparin); similar doses were applied systemically and intrapericardially to be able to make a good comparison between the two routes of administration. Solvent was PBS, except for Texas Red FGF-2 and cortisol which were dissolved in a 10 mg/ml solution of RSA in PBS.

[2] = rat, in vivo
Protocol: as §1

[3] = In vitro release from SAIB depot of Example 2A; format: physicochemical; settings: SAIB:benzyl benzoate:DL-PLG 83:12:5 depot, 500 μL in PBS pH 7.4, 37° C.
Protocol: In this embodiment sotalol (an anti-arrhythmic) is delivered from a depot comprising sucrose acetate isobutyrate (SAIB). A formulation is prepared by mixing SAIB (Eastman Chemical Co.) and benzyl benzoate (Aldrich Chemical Co.) and ploy (DL-lactide-co-glycolide) (DL-PLG) or DL-poly(lactide) (DLPL) in a ratio of 83:12:5 (weight basis) and stirring until a homogeneous mixture is achieved. 10 μg of sotalol is added to 500 μL of the SAIB:benzyl benzoate:DLPLG formulation.
The final depot formulation is prepared by passing the mixture repeatedly between a pair of 5 ml syringes equipped with needles. Multiple passes are performed until a solution is achieved. The final concentration of sotalol in the depot is 0.02 μg/ul.
To determine, in vitro, the release of […] from the formulation, 500 μL of the depot is placed in 750 μL of dissolution buffer (PBS, 0.01 M, pH 7.4 with sodium azide) in a 1.5 mL Eppendorf microcentrifuge tube. The formulations are incubated at 37° C. with no agitation. The entire dissolution buffer is removed and replaced with fresh buffer at the desired sampling times (0.25, 0.5, 1, 2, 3, 4, 5, 6, 24 hr and daily thereafter). The samples are assayed for protein concentration by ELISA. The release rate of drug from this depot is about 0.3 μg per day.

[4] = Pharmacokinetics after intrapericardial or intra-arterial bolus injection; format: in vivo, rats; settings: mean ± SE
Protocol: Immediately after implantation of the pericardial catheter, rats (still under anesthesia) were provided either with a catheter in the right femoral artery essentially as described (Smits et al., 1982). Rats were allowed to recover at least 2 days before experimentation> One hour before start of the experiment, 20 μl pericardial fluid was withdrawn using a Hamilton 1705 (Hamilton Bonaduz, Bonaduz, Switzerland) syringe and 50 μl of saline were injected into pericardial space to check the integrity of the pericardial catheter. Injections of volumes up to 0.2 ml were previously shown to be without hemodynamic effects (Veelken et al., 1990). Blood (0.15-0.25 ml) was collected in a syringe, containing a minimal volume of heparin (Organon Teknika, Boxtel, the Netherlands). Pericardial fluid was diluted 10 times in PBS and the blood was centrifuged for 20 minutes at 3500 rpm to obtain plasma. These samples served as blanks for later analyses. Experiments in which substances were applied intrapericardially were started by a 50 μl bolus injection of the test substances into pericardial space, followed by 20 μl saline to flush the catheter. If substances were applied systemically, experiments were started by a 100 μl bolus injection of the substances and subsequent injection of 300 μl saline into the femoral artery catheter. FITC rat IgG, (10 mg/ml), Texas Red RSA (10 mg/ml), and FITC heparin (1 mg/ml) were dissolved in PBS.
Pericardial fluid (20 μl) and blood samples were taken at various time points after injection. To substitute withdrawn pericardial fluid, 20 μl of saline was injected into pericardial space immediately after sampling. After every sample, the femoral artery catheter was flushed with 0.3 to 0.4 ml saline and filled with heparinized (5-10 IU/ml) saline. Plasma and pericardial fluid samples were stored at −20° C. until analysis.
Data were standardized for bodyweights. Pharmacokinetic analysis of the data for each animal was conducted using the GPAD (GraphPAD Software, San Diego, Calif.) software package. Data were fitted to the exponential equation Ct=A.e^−αt+B. e^−βt of one-(i.e. A is fixed at 0) and two compartment models. Fits were compared using F-tests and data were log transformed for model judgement.

[5] = 7-day intrapericardial infusion (bFGF: days 3 to 7)
[6] = pericardial fluid after intrapericardial bolus injection
[7] = plasma after intra-arterial bolus injection

| Compound | ratio of concentration in pericardial fluid to concentration in plasma [1, 5] | plasma concentration over time [1] | Peric/plasma ratio [2] | Peric/plasma ratio ([2]; iv) | Cl (clearance, Dose/AUC) [4, 6] [mL/h/kg] | Vc (initial central compartment volume) [4, 6] [L/kg] | t1/2α [4, 6] [h] | t1/2β [4, 6] [h] | Cl (clearance, Dose/AUC) [4, 7] [mL/h/kg] | Vc (initial central compartment volume) [4, 7] [L/kg] | t1/2β [4, 7] [h] | further results |
| --- | --- | --- | --- | --- | --- | --- | --- | --- | --- | --- | --- | --- |
| C[C@]12CCC(=O)C=C1CC[C@@H]1[C@@H]2[C@@H](O)C[C@@]2(C)[C@H]1CC[C@]2(O)C(=O)CO [Cortisol] | 12-50 | remained at a constant, low level | – | – | – | – | – | – | – | – | – | Kp ([1]; male, Wistar, rat, pericardial fluid and plasma, other: intrapericardial infusion, 7-day intrapericardial infusion (bFGF: days 3 to 7), read-out: ratio of concentration in pericardial fluid to concentration in plasma): 12 to 52; Kp at 7 days (in vivo; Peric/plasma ratio): 14.4 ± 0.55; Kp at 7 days (in vivo; concentrations in plasma lower than in pericardial fluid): ≥ 7; Peric. Fluid concentration ([2]; 7 days): 1.59 ± 0.44; Plasma concentration ([2]; 7 days): 0.11 ± 0.03 |
| CC(C)NCC(O)COc1cccc2ccccc12 (centres unmarked) [propranolol] | – | – | – | – | – | – | – | – | – | – | – | release rate of drug from depot [3]: about 0.3 μg per day |
| Cortisol carbonic acid | – | – | – | – | – | – | – | – | – | – | – | clearance derived from steady-state concentration (infusion dose rate/steady state concentration) [2]: 1.85 ± 0.211 mL/h/kg |
| Texas Red FGF-2: Texas Red-labelled fibroblast growth factor-2 (basic FGF) | 2-10 | remained at a low level | 6.85 ± 1.61 (4) | 1.01 ± 0.38 (2) | 0.483 ± 0.0198 | 0.000497 ± 7e-05 | 0.288 ± 0.0917 | 1.7 ± 0.317 | 5.05 ± 0.618 | 0.03999 ± 0.000923 | 5.63 ± 0.517 | concentration in the pericardial fluid over time ([1]; between day 3 and day 7 after the start of infusion): rose gradually |
| Texas Red RSA: Texas Red-labelled rat serum albumin | 9-15 | remained at a constant, low level | 8.11 ± 2.60 (4) | 0.98 ± 0.26 (4) | 0.223 ± 0.054 | 0.000892 ± 0.000207 | 0.78 ± 0.233 | 9.82 ± 2.22 | 2.43 ± 0.166 | 0.034734 ± 0.001761 | 18.87 ± 5 | concentration in the pericardial fluid ([1]; day 1 after the start of intrapericardial infusion): about 375 FU/ml; concentration in the pericardial fluid ([1]; day 3, remained at this level through day 7): about 190 FU/ml; t1/2α [4, 7]: 1.48 ± 0.247 h |
